Test results taken from US12116424.
Where two headings read alike, the source gives them in different places.

Legend:
[1] = target: L. monocytogenes AgrC (Listeria monocytogenes (EGD-e)); assay: cell-based or functional assay
[2] = target: L. monocytogenes AgrC (Listeria monocytogenes (EGD-e)); assay: cell-based or functional assay; remark: listed apart in the source

Substance: AIP F3H (peptide)
- Max Activation Observed (agr-GFP reporter, ΔagrD strain) [1]: 12.4%
- Max Inhibition Observed (agr-GFP reporter, wild-type strain) [1]: 24.9%

Substance: AIP V6A (peptide)
- EC50 (agr-GFP reporter, ΔagrD strain) [2]: 241 nM
- Max Activation (agr-GFP reporter, ΔagrD strain) [2]: 69%
- Max Activation Observed (agr-GFP reporter, ΔagrD strain) [2]: 69%
- Max Inhibition (agr-GFP reporter, wild-type strain) [2]: 15%
- Max Inhibition Observed (agr-GFP reporter, wild-type strain) [2]: 15%

Substance: L. grayi AIP (peptide)
- Max Activation (agr-GFP reporter, ΔagrD strain) [2]: 10.7%
- Max Inhibition (agr-GFP reporter, wild-type strain) [2]: 0.42%

Substance: AIP C2dDap (peptide)
- Max Activation Observed (agr-GFP reporter, ΔagrD strain) [1]: 14.3%
- Max Inhibition Observed (agr-GFP reporter, wild-type strain) [1]: 19.3%

Substance: AIP A1V (peptide)
- EC50 (agr-GFP reporter, ΔagrD strain) [1]: 7.67 nM
- Max Activation Observed (agr-GFP reporter, ΔagrD strain) [1]: 109%
- Max Inhibition Observed (agr-GFP reporter, wild-type strain) [1]: 1.63%

Substance: AIP F3L (peptide)
- EC50 (agr-GFP reporter, ΔagrD strain) [1]: 693 nM
- IC50 (agr-GFP reporter, wild-type strain) [1]: 3600 nM
- Max Activation Observed (agr-GFP reporter, ΔagrD strain) [1]: 37.6%
- Max Inhibition Observed (agr-GFP reporter, wild-type strain) [1]: 33.4%

Substance: L. kieliensis AIP (peptide)
- Max Activation (agr-GFP reporter, ΔagrD strain) [2]: 10.4%
- Max Inhibition (agr-GFP reporter, wild-type strain) [2]: 0%

Substance: AIP A1K/C2dC/M4dM (peptide)
- IC50 (agr-GFP reporter, wild-type strain) [1]: 1770 nM
- Max Activation Observed (agr-GFP reporter, ΔagrD strain) [1]: 8.1%
- Max Inhibition Observed (agr-GFP reporter, wild-type strain) [1]: 88.6%

Substance: L. weihenstephanensis AIP (peptide)
- Max Activation (agr-GFP reporter, ΔagrD strain) [2]: 11.2%
- Max Inhibition (agr-GFP reporter, wild-type strain) [2]: 0%

Substance: AIP V6dV (peptide)
- EC50 (agr-GFP reporter, ΔagrD strain) [2]: 883 nM
- Max Activation Observed (agr-GFP reporter, ΔagrD strain) [2]: 72.9%

Substance: AIP F5dF (peptide)
- EC50 (agr-GFP reporter, ΔagrD strain) [2]: 2180 nM
- Max Activation Observed (agr-GFP reporter, ΔagrD strain) [2]: 72.3%
- Max Inhibition Observed (agr-GFP reporter, wild-type strain) [2]: 2.71%

Substance: AIP A1P (peptide)
- EC50 (agr-GFP reporter, ΔagrD strain) [1]: 29 nM
- IC50 (agr-GFP reporter, wild-type strain) [1]: 611 nM
- Max Activation Observed (agr-GFP reporter, ΔagrD strain) [1]: 76.8%
- Max Inhibition Observed (agr-GFP reporter, wild-type strain) [1]: 23.7%

Substance: AIP C2Dap (peptide)
- EC50 (agr-GFP reporter, ΔagrD strain) [1]: 342 nM
- Max Activation Observed (agr-GFP reporter, ΔagrD strain) [1]: 92.9%
- Max Inhibition Observed (agr-GFP reporter, wild-type strain) [1]: 5.32%

Substance: AIP M4dA (peptide)
- EC50 (agr-GFP reporter, ΔagrD strain) [1]: 455 nM
- Max Activation Observed (agr-GFP reporter, ΔagrD strain) [1]: 82%
- Max Inhibition Observed (agr-GFP reporter, wild-type strain) [1]: 9.54%

Substance: L. monocytogenes AIP, A-(C-F-M-F-V) (peptide)
- EC50 (agr-GFP reporter, ΔagrD strain) [1]: 29.7 nM
- Max Activation Observed (agr-GFP reporter, ΔagrD strain) [1]: 114%
- EC50 (agr-GFP reporter, ΔagrD strain) [2]: 29.6 nM
- Max Activation (agr-GFP reporter, ΔagrD strain) [2]: 114%
- Max Inhibition (agr-GFP reporter, wild-type strain) [2]: 2.66%

Substance: AIP F5W (peptide)
- EC50 (agr-GFP reporter, ΔagrD strain) [1]: 1130 nM
- Max Activation Observed (agr-GFP reporter, ΔagrD strain) [1]: 85.8%
- Max Inhibition Observed (agr-GFP reporter, wild-type strain) [1]: 8.43%

Substance: AIP C2dC (peptide)
- EC50 (agr-GFP reporter, ΔagrD strain) [2]: 106 nM
- IC50 (agr-GFP reporter, wild-type strain) [2]: 3970 nM
- Max Activation Observed (agr-GFP reporter, ΔagrD strain) [2]: 41%
- Max Inhibition Observed (agr-GFP reporter, wild-type strain) [2]: 48.4%

Substance: AIP M4dM (peptide)
- EC50 (agr-GFP reporter, ΔagrD strain) [2]: 10.2 nM
- Max Activation Observed (agr-GFP reporter, ΔagrD strain) [2]: 111%
- Max Inhibition Observed (agr-GFP reporter, wild-type strain) [2]: 3.99%

Substance: AIP F5Y (peptide)
- EC50 (agr-GFP reporter, ΔagrD strain) [1]: 5620 nM
- Max Activation Observed (agr-GFP reporter, ΔagrD strain) [1]: 44.4%
- Max Inhibition Observed (agr-GFP reporter, wild-type strain) [1]: 6.61%

Substance: AIP F5L (peptide)
- EC50 (agr-GFP reporter, ΔagrD strain) [1]: 2060 nM
- Max Activation Observed (agr-GFP reporter, ΔagrD strain) [1]: 64.8%
- Max Inhibition Observed (agr-GFP reporter, wild-type strain) [1]: 8.97%

Substance: AIP F3A (peptide)
- Max Activation Observed (agr-GFP reporter, ΔagrD strain) [2]: 9.72%
- Max Inhibition Observed (agr-GFP reporter, wild-type strain) [2]: 3.65%

Substance: Lm AIP F3S (peptide)
- Max Activation (agr-GFP reporter, ΔagrD strain) [2]: 16.1%
- Max Inhibition (agr-GFP reporter, wild-type strain) [2]: 16.3%

Substance: AIP F5H (peptide)
- Max Activation Observed (agr-GFP reporter, ΔagrD strain) [1]: 7.13%
- Max Inhibition Observed (agr-GFP reporter, wild-type strain) [1]: 2.19%

Substance: AIP A1K/M4dM (peptide)
- EC50 (agr-GFP reporter, ΔagrD strain) [1]: 4.18 nM
- Max Activation Observed (agr-GFP reporter, ΔagrD strain) [1]: 74.1%
- Max Inhibition Observed (agr-GFP reporter, wild-type strain) [1]: 20.2%

Substance: AIP F3W (peptide)
- EC50 (agr-GFP reporter, ΔagrD strain) [1]: 414 nM
- IC50 (agr-GFP reporter, wild-type strain) [1]: 2180 nM
- Max Activation Observed (agr-GFP reporter, ΔagrD strain) [1]: 60.6%
- Max Inhibition Observed (agr-GFP reporter, wild-type strain) [1]: 27.1%

Substance: AIP A1dA (peptide)
- EC50 (agr-GFP reporter, ΔagrD strain) [2]: 96.9 nM
- Max Activation Observed (agr-GFP reporter, ΔagrD strain) [2]: 58.8%
- Max Inhibition Observed (agr-GFP reporter, wild-type strain) [2]: 15.2%

Substance: L. grandensis tr AIP (peptide)
- Max Activation (agr-GFP reporter, ΔagrD strain) [2]: 10.1%
- Max Inhibition (agr-GFP reporter, wild-type strain) [2]: 0%

Substance: L. newyorkensis AIP (peptide)
- Max Activation (agr-GFP reporter, ΔagrD strain) [2]: 23.6%
- Max Inhibition (agr-GFP reporter, wild-type strain) [2]: 0.96%

Substance: AIP A1T (peptide)
- EC50 (agr-GFP reporter, ΔagrD strain) [1]: 35.2 nM
- IC50 (agr-GFP reporter, wild-type strain) [1]: 420 nM
- Max Activation Observed (agr-GFP reporter, ΔagrD strain) [1]: 88.1%
- Max Inhibition Observed (agr-GFP reporter, wild-type strain) [1]: 11.7%

Substance: AIP F3dF (peptide)
- Max Activation Observed (agr-GFP reporter, ΔagrD strain) [2]: 6.63%
- Max Inhibition Observed (agr-GFP reporter, wild-type strain) [2]: 14.7%

Substance: AIP F3Y (peptide)
- EC50 (agr-GFP reporter, ΔagrD strain) [1]: 518 nM
- IC50 (agr-GFP reporter, wild-type strain) [1]: 3460 nM
- Max Activation Observed (agr-GFP reporter, ΔagrD strain) [1]: 47.4%
- Max Inhibition Observed (agr-GFP reporter, wild-type strain) [1]: 33.4%

Substance: AIP F5A (peptide)
- Max Activation Observed (agr-GFP reporter, ΔagrD strain) [2]: 6.37%

Substance: AIP C2dC/M4dM (peptide)
- EC50 (agr-GFP reporter, ΔagrD strain) [1]: 24.1 nM
- IC50 (agr-GFP reporter, wild-type strain) [1]: 242 nM
- Max Activation Observed (agr-GFP reporter, ΔagrD strain) [1]: 35.7%
- Max Inhibition Observed (agr-GFP reporter, wild-type strain) [1]: 64.8%

Substance: AIP M4A (peptide)
- EC50 (agr-GFP reporter, ΔagrD strain) [2]: 1980 nM
- Max Activation Observed (agr-GFP reporter, ΔagrD strain) [2]: 53.5%
- Max Inhibition Observed (agr-GFP reporter, wild-type strain) [2]: 7.85%
